# Experiment: label from the status in PepcDB records
row,Sequence,protein production
1,MTQRTAFTLTVSPKIPARLSRLEELSNNLWYSWDRATRALFSRLDQQLWEAVGHSPKAFLRRVDESLLLQAAEDLTFLSHYNSVLSAYDSYHSEPSRYQAINGIEARDQVAYFCFEFGFHESLPVYSGGLGILAGDHCKAASDLCLPFVAVGLLYRQGYFFQTIDGQGNQQPVFCDSDFEDLPVKPALHDDGSEVRISVRFPGRVVTVKVWRAQIGHVGLYLLDTDLPDNSEYDRLITHQLYGGNKTMRIEQEIILGVGGVAALRAMGIKPTIWHSNEGHAAFMMLTRALELVRQGLDFASATEAVAVNTIFTTHTAVPAGHDHFPEDMMHRYFEDFYHELKISREEFMALGHTPGNHDFNMTALAIRMSRMHNGVSRIHRDVSANICHDMWPQIEPEENPIDYVTNGVHVPTFLAQEWTDLFDRRLGSQWRSKQHAPEFWSRIHDIPDHIFWSVRQSLKSQMFYGIRARLTEQNLRNHGSEAHLERLLRFVDPINPNILTLGFARRFATYKRATLLFQDLDWLRKLLLDAARPILLIFAGKAHPADLPGQALIRHIHQVADMPEFRGRILLVEGYDLRLARRLVSGVDVWLNNPIYPLEASGTSGMKAGINGTLNLSILDGWWGEGYDGKNGWGIKPVSENMEDSLRDAEESRAFYEILQDQVIPLYYDHSKFGYSADWVRMAKNSMVSLLPRYGTGRMVGEYVQKFYAPASRQGTGYSQDNFAIARSIAAWKARINAAWDGVSVRRLDTPGKQLEFGSTMHFKLAVKLNGLQPEDVVVELLLSRQYNKTRLSQFKHFRLECTGPLGSHEHQFELNHVPELCGRQQYYLRIYPYHPLLTHPLEMGKMVWLLEHHHHHH,failed
2,MRNLSRRIQSHQIRLRPPPFGAKRPVRRSESTSPPPRRRLIVGKRNRSAQVQYSMSHGLTHLSFWPLLFATLALTHVTIVSVTIFLHRHQAHRALSLHPLASHFFRFWLWLTTATVTKEWVSIHRKHHARCETPDDPHSPQCLGIFTVLLRGWMLYRKEARNTATLAQFGNGTPDDWLERKLYSRFPDLGITLMLALNLLLFGIGGLGVWAVQMLWIPFWAAGVVNGLGHHLGYRNFETPDASTNLWPIGFIIGGEELHNNHHAYPASAKFSSRRWEIDIGWLYIRLMTLLKLAKIRNMPPKTIIHTAEPSVDMDTVKAVLRNRAHVLSLYGRRVIVPVLRSEQAKSPKAGRRLLRQTRPLLLREYIKADPAAWHNFSRMLEDSQTLATIFQFKQQLKAVWTDSFTSHEERLERLRAWCLQAKQSDLPWLQHFADTLSGYRLQPAH,failed
3,MELTLALVIFVICYLLIMAETFNRAVVACLGGVLMLFVGIYPLDAAFLQYIDWHTITLLLSMMILVSITSQSGFFEYMAIRLAQKVDGRPIPLLIVVAGITAIGSAFLNNVTMVLLIVPIVLTLTNLLKLNAVPFLLTLVMASNIGGTATLIGDPPNLMIGQAVAHLSFNDFLLHLGPIVAVIFFVVLIGLILYYRRQLSVTAEDRSRLRGVDPTSYLKNRPLLIKSMTVLTLTTIGFTIQPFLPVELTSIAMAGALLLMLITQNEQDMEGVFRSVEWVTLFFFIGLFMLVGGIKEVGIIDEIAKAIIYYTEGDIPKTSLFILWGSGILSGFVDNIPFVAAMIPVILEFQEYGVGELDPLWWSLALGACLGGNATVIGATANVIVAGLAVQAKQSFSYLEFLKVGAPVALVSFLLCTVYLYIRYLIYF,failed
4,MRYERDMRGYGANPPDPKWPGGAHVAVQFVVNYEEGGENCVLHGDKASEAFLSEIVGAAPWVGQRHWNMESIYEYGARAGFWRLLRLFSESQVPVTCYGVASALARSPDQVTAMQDAGWEIASHGLRWIDYRDHSAEDERRDLEAAIKLHYEVTGQRPTGWYTGRTSVNTVRLVAEEGGFDYVSDTYDDELPYWFEHAGGTQLIIPYTLDANDMRFATPQGFNSGDQFFAYLKDSFDTLYAEGQAGRPRMMNIGLHCRLVGRPGRVAALKRFVDYVKSHDKVWLTRRIDIAKHWQENHPYKPAALRPSKMEFEIFVHTFGGVFEHSPWIAERAYELELGPAHDTAGGLHNALCRIFRSASETERLGVLNAHPDLAGKLAKARRLTAESTREQASAGLDALTDKERELFSKLNAAYVTTFGFPFIIAVKGKTKEEILAEFEARIGNSRGVEFETACKQVERIALLRLRDMLPQ,failed
5,MIGGSIISSNLLIRIFHGSCRKIIAFLFTILSLTLISGVLIYFVEGETGGFISRSSSVYWAITTLLTTGYGDTVLQTNFGRLVASVVKVLGFSIIVAPIVIIITEIYKSLSETSRKTKSLTISPFPLIWRYLNTQYFRML,failed
6,MVDIHSHIIPGIDDGSNSLETTLKMMEIANEAGLTKMVATSHYFRGRFENSISAITSEAEKLNSIFKKKAVDIEVIPGQEVFIDNHTLEAHKNGIIGCIRDTNYMLVEFDMMSLLENAADILYEIQIRGIKPIIAHPERYTYIQRDLYKINDLIDENIYFQVNAGSIEGLFGKTVQKTAIKLIEEGLVSFIASDAHSAGKRCPGYEGALKLVAKIDSVLPGKFVKNADLLIENQEIKARSQKLKRKKGFFTFFK,failed
7,MLTAPPKEAARPTLMPRAQSYKDLTHLPAPTGKIFVSVYNIQDETGQFKPYPASNFSTAVPQSATAMLVTALKDSRWFIPLERQGLQNLLNERKIIRAAQENGTVAINNRIPLQSLTAANIMVEGSIIGYESNVKSGGVGARYFGIGADTQYQLDQIAVNLRVVNVSTGEILSSVNTSKTILSYEVQAGVFRFIDYQRLLEGEVGYTSNEPVMLCLMSAIETGVIFLINDGIDRGLWDLQNKAERQNDILVKYRHMSVPPESLEHHHHHH,failed
8,MAEELLAPEVIADLKARAISQPLVEHIYTADPSAHVFNGKIYIYPSHDIEAGIPFNDNGDHFGMEDYHVISLDSPDSPAVDNGVALHVKDVAWAERQMWPPDAAHKNGKYYLYFPAKRANGIFQIGVAVGDSPIGPFKAEPEAIKGSYSIDPAVFEDNDGEYYMYYGGIWGGQLQNYRNNQYDANRGEPADNEPALGPIVARLTADMKEFAEAPREIQILDQDGKPLLAGDHDRRFFEASWVHKYNDQYYFSYSTGNTHFLCYATGDNPYGPFTYRGQILTPVIGWTTHHSIAEYQGQWYLFYHDCVLSKGITHLRSVKMAPLTHKADGSIETITPYRD,failed
9,MTARDDETIAFYSGHATAYTSRGQAPDRPHLETFLARLRAGAKILELGCGGGQDSEYMLSAGFDVHPTDGTPDIAKAAQARLGIPVRTLLFENIEDAALYDAVWANACLLHVPRLALPGIIGRIHTALKPGGVFYASFKAGEVEGRDTFGRYYNYPSKAWLEETYGQFAWTEVEIEARQGSGYDKLPTDWLHVTATKALEHHHHHH,not failed
10,MLRVIVESASNIPKTKFGKPDPIVSVIFKDEKKKTKKVDNELNPVWNEILEFDLRGIPLDFSSSLGIIVKDFETIGQNKLIGTATVALKDLTGDQSRSLPYKLISLLNEKGQDTGATIDLVIGYDPP,not failed
11,MADYNNAVVFYDTSGIEYSKQIKKTLERGFERECFLINLDNRENTLSRLNLAMKTSKYVIFLFSSMYSNENMLDEAKTAFNSDKHIISLKLDDPELKKQISIHQSEFEDNYGLSKKVNDEVEKLKKMEKKGTDFVESQISFNMGNIYFNFGKYAEAIRCYKKAVKIIPDFVDALHNFNSLSNMNLFDMGEEPKKPVLYKDVTIDELVPDIFSNTVQKEPEEPQKYSELEPEELEDLILDGEIGENLEEIGSEDELTEKIDDKLPEIDESKDKSKAQPEDELNETFEEGIEYETFEVIDAEEKNEISDENLEISSLEPEFEEKSIFKLEKETEQPELEENLEPVLEVPEELVEDVEILDASEEDIEKELENQEVIIEEKLETLDELLDKSELESELVEEHTYEIDNNEFLEILSFANTLYESGDFEAAKTEYKKAIALNPGNSEVHNHYGCLLEYLEKYGEAEIEFKKAVALDGSNSKAYNNLATFLAKSEKYDEAEEHYKKAIEIAPDYWAAIYNLAAMYAALKRYDEAVAQVKSMVKIFRSDGNIKEVLELKKLIKHLKKLKIQKS,failed
12,EQEDKVSGEKTLAVVSASSDDRPSTRGIINDNTYALGVFRTTANTYAPLYNVKHIYSGGEWGADDVIKVDYRNASFFAYYPYHTATGNYAGLAGGTTLTLQAQLFNAGEDICYGAGEASGGGPVSVYNPFVEFLNMKHAYARLRLTLTRGEKFDKTKKCNIQNITFKSNNANFYLTRSLDIASTAGATGGSAVAAGYVHNPNVNIATGKSVTYEYMFPPQPLDGSKLTILVTVDGVTRSCDISTLGSSLDSGKYYGVSLTFTDVGIILSSAVVTVNNFGGQGNTQVDTEL,not failed
13,MWIAVSAVNLALAVILGAFGAHGLKAYASPAKLAWWQTATDYFFYHALGLLVLGVISKTYTVLPIKSSFILIQIGILFFCGSLYLMALGLPRGFGAITPIGGAFMILGWIVLAWNAVKYAK,failed
14,MAMSGTYVTDVPLKGSAEKHYKRWRSENHLVPEAIGHLIQGVTVHDGDWDSHGTIKIWNYTRDGKEEVLKERIEMDDENMAVTINGLDGHVMEVLKVYVTTLHFIPESKDGCVCKITMVWEKRTEDSPEPIEFMKFVEQMIAHMDDHILQNQE,failed
15,MSERVCAVIVTYNRKALLRECLKAVLSQTRPPDHVLVVDNASTDGTPEMLQEEFPQVEVLRLPENQGGAGGFHEGMKRAYEQGVDWLWLMDDDTIPKAKALEALLEAARLPLDPRPRVLASRQLLPNGLPHPTTAFVNPTDPRHPFLWLRLRPRYRPIRWALFTSVLLHRSLVEEHGLPHKAFFIWEDDLEYTARALRRGLGLQVRDSEVIHKSASKPYISATTGENRLFYGVRNRIWVLRSPAFGPLGKAFLALQLLFGLLTYLAFHPSQKSLQEIGRALRAGLTTSPCLEHHHHHH,failed
16,DPEEIMQVAVEKLGQGLGICRCVIYRCSADDTVATINHEFLGSGVGSIKGYPWPLKDNPLFQEVVVLKEAIAIDNIDRDPRLGEPEPSTGEVKTLVKSCAILSWMLVPIFYRERLLGMMEFHHCGPAPTEWEDDALTLVEGVATQIGVALIQAESYANLQELNEQLAALDRTRSNLVAITGHELRTP,failed
17,MAQEVSPESYKDLVLFLATAGIVAPIFKRLKINPILGYLLAGVILGPFGLGRFIPYAPWLDYFTVDNPDEIAQLAEFGVVFLLFMIGLELSWERLRLMRRWVFGLGAVQVIGCSLALGAGGMLLGLEPVVALTIGAALTLSSTAIAVPVLAERRRLHSEAGRATFSVLLFQDLAVAPILITLAILGRGNGSFQLQDLLALAPAALGLAVIVLVGRLALRPMLKSVAKAKSEEMFMAACLLVIIGAGMVAALSGLSMALGAFVAGVLLAETEYRHEVEVKIEPFKGLLLSLFFVSLGIRLDLSLLAAQPAAILGTALGLLVLKTAVVFGSGLLMGLNRRAAIEAALILAAGGEFAFVLLDNAMSAQVVPPAIGQAVLVSATLTMFLIPGLAALGGYLGRKNAPLPVSEAPPSTANEPDRLGPEPAGQVLVIGYGRVGRLVGDMLGRHDLPWIAVEREARLVEQGRRDGARIYYGDASRLELLERCGLATARAVVVTMDAFEVAEAVVVAARGARPDVPIVVRARDARHAARLYELGATDAVPETIEASLQLSEAVLVDIGVPMGLVIASIHERRDEYRKKLNRPDALGGRRRRLRDATLR,failed
18,MMERFDISAQDLKSFGFTTLFCIVIALATMSIWGGLFGEHLAISFSYGYSAFFSAQWIARRWPELSKRLVNILSLSCAVVLGTSSAYLWLRHYPGFDEFSAYKPIIFLGFIFSAVCFLYFYSHEQKILAQGALEAARRRQSEQEKALLLSQLKQLQSQMEPHFLFNTLANINALIAVEPYKAQLMLEKLTELLRGTMRLRRTNTGDLREEMQLIDAYLGIQKIRLGERLEYTLPELSELGTLGMPPMLIQPLVENAVSHGIEPKAEGGTIRVRIEVADDWFELSVEDNGMGLSDTPKGNGIALQNVRDRLSGLFGHEGLLTVAQNCSGGVTATLRIRLHHLQGLQRSFYDYSQARSPQS,failed
19,MKLSVCTITFRHHLLCFSEIVEWTQRNGFDGVELWGAHARGLMRTHPEYDADWLRSYGLSVPMLSDYLPTDGDITDTRHRAIELCRIAQHWSARKIRTFAGNRPSAQLSREQRRALAGRIGEIAGIVHDHGIRLLVETHPNTLADNVDSTLGLLADANHPGLGINFDALHVWEGGDDPVLARRTLADFIGHYHLKNVRSRDELGVFAPENVYSAAGSRDGMVPLFDGAMDYEGFLASLADETDAEASLEWFGHDCFETLARDRLAIFARSISTRGRRGSAGTQQARLAESRAAGRAASSKGPSCI,failed

# — a protein production outcome set (Wang et al. 2014)
